From patent US20240110004A1 (Northwestern University, priority 2022, published 2024)
Where no end group is shown, it is not given here.

How the values were obtained:
[1] = molecular target: T1, VCP (Homo sapiens, UniProt P55072); test: Bio-layer interferometry (BLItz) binding to VCP
T1 construct: purchased Antibodies-online
Experimental: FIG. 14A-14B: Biolayer Interferometry (BLItz) measurements from in vitro assay evaluating binding between P1 and VCP (FIG. 14A) and between HV3-TAT peptide and VCP (FIG. 14B). FIG. 14A: lines from top to bottom: 100 μM, 10 μM, and 750 nM. FIG. 14B: lines from top to bottom: 10 μM, 7.5 μM, 5 μM, and 1.25 μM.
BLI Methods: With cellular VCP engagement verified as discussed in Example 2 (and shown in FIG. 3B), P1 was further assessed for VCP binding via Bio-layer Interferometry (BLI) to further study the interaction compared to HV3-TAT peptide. Binding affinity was measured by using BLItz instrument. The anti-HIS sensor (HIS2) was hydrated before the installation. After the sensor installation to the BLItz instrument, histidine tagged VCP proteins (50 μg/ml in sodium acetate buffer at pH 6.5) were immobilized on the sensor. HV3-TAT and P1 were dissolved in Tris buffer (pH 8.4) with a range of concentrations. Using BLItz instrument, the dissociation constant (KD), on-rate (ka) and off-rate (kd) of each analyte were measured.

[2] = system: R6/2 mice; test: Immunohistochemistry of DARPP-32 in striatum; format: in vivo, mouse; details: over saline control
Excerpt: FIG. 33: Quantification of immunohistochemistry of DARPP32 in striatum of WT and R6/2 mice after treatment with PLP or HV3-TAT (immunohistochemistry stain not shown). p-value for: WT veh as compared to R62 veh: 0.0010; WT+P1 as compared to R62 veh: 0.0019; R62 veh as compared to R62+HV3-TAT: 0.0496; R62 veh as compared to R62+P1: 0.0104; R62+HV3-TAT as compared to R62+P1: 0.9593.
In vivo Efficacy Methods—Immunohistochemistry: Mice were anaesthetized with isoflurane and transcardially perfused with PBS. After post-fixed with 4% paraformaldehyde, brains were sliced and frozen. Brain sections (20 μm, coronal) were used for immunohistochemical localization of DARPP-32 (1:14000, Abcam) using the IHC Select HRP/DAB kit (Millipore). Imaging of slices was conducted on an all-in-one fluorescence microscope (Keyence). The same image exposure times and threshold settings were used for sections from all treatment groups. Quantitation of DARPP-32 immunostaining was conducted using NIH image J software.

[3] = system: enzymes
Experimental: Stability of PLPs Methods I: For enzyme-induced cleavage experiments, the molar concentration of enzymes was set to 0.1 μM. The concentration of side-chain peptides (having sequence identity of SEQ ID: 1) varied in the range of 50-200 μM. For each enzyme, temperature was set for optimal enzyme activity. In a typical experiment, P1 or HV3-TAT was dissolved in DPBS (pH 7.4) or hydrochloric acid solution (pH 2), to obtain a stock polymer/peptide solution with a peptide concentration of 200 μM. Next, 5 μL of enzyme stock solution (10 μM) was added into 500 μL of the polymer/peptide solution which was subsequently stirred in a preheated oil bath at 37° C. In this case, the molar ratio of peptide substrate to enzymes was 2000:1. During the cleavage, aliquots were taken for HPLC analysis at predetermined time points. Each degradation experiment was repeated three times. Enzyme pretreated P1 was also run on SDS-PAGE and visualized with Coomassie Blue staining.

[4] = system: C3a
Excerpt: Immunocompatibility Methods: The interaction of a compound with blood will affect immune response, biodistribution, and clearance. The complement system is a key player in the innate immune response, and thus assaying the interaction between the complement system and PLPs serves as a litmus test to assess inherent inflammatory activity. Complement component C3a is implicated in all three of the complement activation pathways (classic, alternative, and lectin), thus a significant increase in C3a would warrant further investigation into specific activation of the innate and adaptive immune systems. […] In this assay, mouse weight was estimated as 35 g with an average blood volume of 2 mL for dosing preparation. Tested compounds were incubated at a ratio of 1:250 and 1:500 of compound to human serum for 4 hours prior to dilution and start of the assay. Using the C3a ELISA assay, and following manufacturer's protocol, samples were diluted with sample diluent and C3a control reconstituted with water. […] Serum samples and controls were incubated in C3a antibody coated wells for 2 hours with gentle shaking, before they were gently washed 3× with washing buffer, and primary antibody biotin solution administered to wells. […] After a final wash, developing substrate was added for 30 minutes before imaging on plate reader at 450 nM.

[5] = system: red blood cells
Experimental: Hemocompatibility Methods: Before in vivo studies could be conducted, hemocompatibility of the compounds was also assessed via activated clotting time (ACT) and hemolytic activity. Peptide-in-blood and polymer-in-blood dilutions were performed at volume ratios of 1:10000, 1:5000, 1:1000, 1:500, 1:250, and in some cases 1:100.
Regarding the hemolytic activity assay, the hemolytic assessments required 25 ml of whole human blood mixed with Na Citrate anticoagulant to be obtained. To prepare solution of erythrocytes, whole blood was centrifuged at 500 g for 5 minutes, and plasma aspirated. The same volume of plasma removed was replaced with 150 mM NaCl buffer (in Millipore water). Tube was inverted to mix, centrifuged at 500 g for 5 min, and supernatant removed, and this step repeated 2×. Finally, red blood cells (RBC) were resuspended in PBS. 10 μL of compound was added to 190 μL of diluted red blood cell erythrocyte solution in a 96 well plate (n=4). 20% Triton X acted as the positive control, and PBS acted as the negative control/vehicle. Plates were incubated at 37° C. for 1 hour. Plates were centrifuged for 5 min at 500×g to pellet intact erythrocytes. Using a multichannel pipet, 100 μl of supernatant was transferred from each well into a clear, flat-bottomed 96-well plate. Absorbance of supernatants was measured with a plate reader at 405 nM

[6] = bio-layer interferometry, VCP protein

T1 sequence (P55072 whole entry, species assumed): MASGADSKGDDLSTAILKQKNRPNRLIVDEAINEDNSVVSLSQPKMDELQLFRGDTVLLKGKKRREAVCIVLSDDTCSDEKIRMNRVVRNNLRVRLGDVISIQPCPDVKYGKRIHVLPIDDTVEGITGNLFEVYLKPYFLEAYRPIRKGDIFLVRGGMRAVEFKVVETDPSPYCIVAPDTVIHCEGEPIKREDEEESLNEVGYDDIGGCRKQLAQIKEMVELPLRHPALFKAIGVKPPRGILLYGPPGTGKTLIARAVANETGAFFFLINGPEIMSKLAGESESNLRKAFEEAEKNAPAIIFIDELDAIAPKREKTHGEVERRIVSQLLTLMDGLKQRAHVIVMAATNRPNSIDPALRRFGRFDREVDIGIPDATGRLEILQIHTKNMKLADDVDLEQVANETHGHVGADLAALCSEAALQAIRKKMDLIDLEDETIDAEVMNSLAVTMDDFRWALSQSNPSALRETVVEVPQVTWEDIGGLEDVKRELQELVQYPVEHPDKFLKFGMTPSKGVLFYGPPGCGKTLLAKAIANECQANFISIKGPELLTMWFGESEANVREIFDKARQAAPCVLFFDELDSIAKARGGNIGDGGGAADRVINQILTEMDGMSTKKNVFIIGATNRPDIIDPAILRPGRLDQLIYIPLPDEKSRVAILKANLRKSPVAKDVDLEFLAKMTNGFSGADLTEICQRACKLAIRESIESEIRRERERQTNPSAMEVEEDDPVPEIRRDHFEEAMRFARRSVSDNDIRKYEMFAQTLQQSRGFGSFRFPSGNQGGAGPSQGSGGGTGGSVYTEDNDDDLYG

In the case of “P1: PLP homopolymer having peptide side chains of SEQ ID: 1 (HVLVMSATRR), made by ROMP of norbornene peptide monomer M1 (also: side chains of polynorbornene homopolymer (PLP, ROMP of norbornene peptide monomer))”, the “decrease in dissociation constant compared to the HV3-TAT peptide” value ([1]; BLI, VCP) is reported as “more than 150 fold”, the “DARPP-32 levels in striatum (immunohistochemistry)” value [2] is reported as “significantly increased DARPP-32 levels” and the “molecular weight on SDS-PAGE after enzyme treatment” value [3] is reported as “maintained molecular weight”. The “C3a complement activation compared to the vehicle” value [4] was “did not show a statistically significant difference” and the hemolytic activity [5] was “non-significant”.
For “peptide sequence HVLVMCAT (HV3) coupled to the cell penetrating, HIV-derived TAT peptide [HV3-TAT, reference compound]”, the Kd ([1]; BLI, VCP) was 14 µM, the “koff” value [1, 6] was 0.023 s⁻¹ and the “kon” value [1, 6] was 1600 M⁻¹ s⁻¹.
